Data taken from doi:10.1101/2023.08.13.546412 (bioRxiv, 2023).

Target: T1, GST-AtSK21 (Arabidopsis thaliana, UniProt Q39011 1-380)
T1 sequence (looked up): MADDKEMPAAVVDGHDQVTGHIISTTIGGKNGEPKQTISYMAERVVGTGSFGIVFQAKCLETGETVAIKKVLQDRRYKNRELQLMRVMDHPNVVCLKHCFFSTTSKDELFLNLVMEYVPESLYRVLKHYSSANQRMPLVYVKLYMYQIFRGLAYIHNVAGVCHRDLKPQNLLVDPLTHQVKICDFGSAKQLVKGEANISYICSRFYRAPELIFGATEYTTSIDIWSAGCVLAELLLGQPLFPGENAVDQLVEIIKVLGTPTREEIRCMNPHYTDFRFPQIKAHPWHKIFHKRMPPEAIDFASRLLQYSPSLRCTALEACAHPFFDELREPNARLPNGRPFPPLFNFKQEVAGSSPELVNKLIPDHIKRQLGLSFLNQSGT
Assay: pull-down

binding result: binds
B1: MBP-WOX5 (natural protein, Arabidopsis thaliana, UniProt Q8H1D2 1-182, looked up)
chain: MSFSVKGRSLRGNNNGGTGTKCGRWNPTVEQLKILTDLFRAGLRTPTTDQIQKISTELSFYGKIESKNVFYWFQNHKARERQKRRKISIDFDHHHHQPSTRDVFEISEEDCQEEEKVIETLQLFPVNSFEDSNSKVDKMRARGNNQYREYIRETTTTSFSPYSSCGAEMEHPPPLDLRLSFL
